Results from patent publication US20110229908A1.

Experiments:
[1] = biological target: BJ kappa Bo (human); test: haemagglutination of sheep RBC coated with BJ kappa Bo
[2] = biological target: BJ kappa Ke (human); test: haemagglutination of sheep RBC coated with BJ kappa Ke

| MAb dilution used against coated red cells [1] | MAb dilution used against coated red cells [2] | Binder |
| --- | --- | --- |
| 1e-05 dilution | – | monoclonal antibody 1B6 (antibody, mouse IgG1, V domains shown) VH: RQFPGNKLEWMGYINYSGITSYNPSLKSRFSITRDTSKNQFFLQLNSVTTEDTATYYCASWYYGNWYFDVWGAGTTVTVSS VL: DIQMTQSPASLSVSVGETVTITCRASENIYSNLAWYQQKQGNSPQLLVYAATNLADGVPSRFSGSGSGTQYSLKINSLQSEDFGNYYCQHFWGTPWTFGGGTKLEIKR |
| – | 1e-05 dilution | monoclonal antibody KA1 (antibody, V domains shown) VH: DVQLQESGPGLVNPSQSLSLTCTVTGYSITGDYAWNWIRQFPGNKLEWMGYISYSGLTSYNPSLKSRISITRDTSKNQFFLQLNSVATEDTATYYCTSFYYGYWYFDVWGAGTTVTVSS VL: DIQMTQSPASLSASVGETVTITCRASENIYSFLTWYLQKQGKSPQLLVNNAKTLAEGVPSRFSGSGSGSQFSLKINSLQPEDFGTYYCQHHYGTPYTFGGGTKLEIKR |
